Assay [1] addresses T1, human lymphotoxin (TNFβ) (human, UniProt P01374 35-205, limits assumed).
T1 sequence (looked up): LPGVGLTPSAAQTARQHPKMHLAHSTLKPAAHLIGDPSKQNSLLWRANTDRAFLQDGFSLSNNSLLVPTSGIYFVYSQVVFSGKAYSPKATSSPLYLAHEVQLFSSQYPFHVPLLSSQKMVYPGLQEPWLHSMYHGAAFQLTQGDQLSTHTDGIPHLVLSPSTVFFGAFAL
The assay is described as follows: cell-based or functional assay.

The target in assay [2] is human tumor necrosis factor-α (TNFα) (human, UniProt P01375 77-233). The assay is described as follows: cell-based or functional assay.
Chain of human tumor necrosis factor-α (TNFα) (P01375 77-233): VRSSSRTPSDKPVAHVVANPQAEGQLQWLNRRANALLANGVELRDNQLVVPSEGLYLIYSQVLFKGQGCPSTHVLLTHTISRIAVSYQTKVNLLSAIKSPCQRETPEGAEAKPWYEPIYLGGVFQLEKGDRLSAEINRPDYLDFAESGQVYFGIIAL

“p55-sf2 (p55 TNF receptor/IgG1 heavy chain single fusion with truncated light chain JCK) (from UniProt P19438) (Fc fusion)”: the amount needed for the same degree of inhibition of TNFβ, against p75P-sf2 (fold against p75P-sf2) in assay [1] was 3.

B1: p75P-sf2 (p75 amino acids 1-182 fused to the IgG1 heavy chain; lacks the C-terminal 53 amino acids of the p75 extracellular domain) (Fc fusion)
chain: QLPAQVAFTPYAPEPGSTCRLREYYDQTAQMCCSKCSPGQHAKVFCTKTSDTVCDSCEDSTYTQLWNWVPECLSCGSRCSSDQVETQACTREQNRICTCRPGWYCALSKQEGCRLCAPLRKCRPGFGVARPGTETSDVVCKPCAPGTFSNTTSSTDICRPHQICNVVAIPGNASMDAVCTSTSDGTLVTVSS
Consider B1, for which, in assay [2], the “IC50 = concentration of fusion protein required to inhibit 2 ng/ml (39.2 pM) TNFα by 50%, WEHI 164 cytotoxicity assay” value was found to be 70 pM and the “Molar ratio fp: TNFα at IC50, WEHI 164 cytotoxicity assay” value was 1.8.

B2: p75-sf2 (complete extracellular domain of p75 fused to the IgG1 heavy chain) (Fc fusion)
chain: QLPAQVAFTPYAPEPGSTCRLREYYDQTAQMCCSKCSPGQHAKVFCTKTSDTVCDSCEDSTYTQLWNWVPECLSCGSRCSSDQVETQACTREQNRICTCRPGWYCALSKQEGCRLCAPLRKCRPGFGVARPGTETSDVVCKPCAPGTFSNTTSSTDICRPHQICNVVAIPGNASMDAVCTSTSPTRSMAPGAVHLPQPVSTRSQHTQPTPEPSTAPSTSFLLPMGPSPPAEGSTGDGTLVTVSS
As for B2, the “amount needed for the same degree of inhibition of TNFβ, against p75P-sf2” value in assay [1] was 3 fold against p75P-sf2.

B3: chimeric mouse/human IgG1 anti-platelet mAb (7E3) (antibody, INN chains, looked up, V domains shown)
VH: EVQLQQSGTVLARPGASVKMSCEASGYTFTNYWMHWVKQRPGQGLEWIGAIYPGNSDTSYIQKFKGKAKLTAVTSTTSVYMELSSLTNEDSAVYYCTLYDGYYVFAYWGQGTLVTVSA
VL: EIVLTQSPVTLSVTPGDSVSLSCRASRDISNNLHWFQQTSHESPRLLIKYASQSMSGIPSRFSGSGSGTDFTLSINSVETEDFGMYFCQQTNSWPYTFGGGTKLEIK
modifications: IgG1
In assay [2], B3 had an IL-6 in supernatant of FS-4 fibroblasts (ng/ml), rhTNF 0.3 ng/ml, antibody 4 µg/ml (no antibody: 1.36) of 1.6 ng/mL; an IL-6 in supernatant of FS-4 fibroblasts (ng/ml), rhTNF 1.5 ng/ml, antibody 4 µg/ml (no antibody: 2.00) of 1.96 ng/mL; an IL-6 in supernatant of FS-4 fibroblasts (ng/ml), rhTNF 7.5 ng/ml, antibody 4 µg/ml (no antibody: 2.56) of 2.16 ng/mL.

These data come from patent US20030198634A1 (published 2003).
